Target: T1, Fms-related tyrosine kinase 3 (FLT3) on FLT3-expressing target cells (human, UniProt P36888 27-993)
T1 sequence (looked up): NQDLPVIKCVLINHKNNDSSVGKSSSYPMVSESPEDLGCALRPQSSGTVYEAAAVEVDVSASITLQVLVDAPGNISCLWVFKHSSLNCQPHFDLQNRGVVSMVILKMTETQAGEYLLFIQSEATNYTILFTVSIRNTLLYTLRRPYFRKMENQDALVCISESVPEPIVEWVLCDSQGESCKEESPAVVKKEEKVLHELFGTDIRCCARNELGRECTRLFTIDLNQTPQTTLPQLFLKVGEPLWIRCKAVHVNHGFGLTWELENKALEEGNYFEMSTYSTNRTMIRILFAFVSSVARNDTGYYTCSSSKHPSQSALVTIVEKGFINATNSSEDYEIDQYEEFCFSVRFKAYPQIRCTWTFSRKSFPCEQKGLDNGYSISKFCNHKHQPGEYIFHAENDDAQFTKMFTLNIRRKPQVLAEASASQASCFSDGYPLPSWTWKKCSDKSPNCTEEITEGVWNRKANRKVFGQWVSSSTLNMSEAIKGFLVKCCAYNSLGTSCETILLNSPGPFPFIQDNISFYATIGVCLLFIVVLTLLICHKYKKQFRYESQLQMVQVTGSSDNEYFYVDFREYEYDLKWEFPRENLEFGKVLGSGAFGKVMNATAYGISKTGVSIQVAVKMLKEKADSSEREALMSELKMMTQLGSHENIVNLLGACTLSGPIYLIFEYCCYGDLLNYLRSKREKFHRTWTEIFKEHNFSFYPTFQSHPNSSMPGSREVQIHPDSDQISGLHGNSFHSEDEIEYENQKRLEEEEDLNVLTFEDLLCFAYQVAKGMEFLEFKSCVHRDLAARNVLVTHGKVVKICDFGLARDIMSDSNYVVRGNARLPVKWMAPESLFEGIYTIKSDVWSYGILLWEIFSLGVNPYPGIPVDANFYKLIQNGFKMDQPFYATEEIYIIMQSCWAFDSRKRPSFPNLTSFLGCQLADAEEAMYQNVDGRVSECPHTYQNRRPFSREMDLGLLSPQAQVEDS
Assay: cell-based or functional assay

B1: FLCAR (chimeric antigen receptor with an FLT3-binding extracellular portion of human FLT3 ligand, CD28 transmembrane and costimulatory regions and a CD3-zeta … (other)
chain: TQDCSFQHSPISSDFAVKIRELSDYLLQDYPVTVASNLQDEELCGGLWRLVLAQRWMERLKTVAGSKMQGLLERVNTEIHFVTKCAFQPPPSCLRFVQTNISRLLQETSEQLVALKPWITRQNFSRCLELQCQGKHLCPSPLFPGPSKPFWVLVVVGGVLACYSLLVTVAFIIFWVRSKRSRLLHSDYMNMTPRRPGPTRKHYQPYAPPRDFAAYRSGSRSADAPAYQQGQNQLYNELNLGRREEYDVLDKRRGRDPEMGGKPRRKNPQEGLYNELQKDKMAEAYSEIGMKGERRRGKGHDGLYQGLSTATKDTYDALHMQALPPR
modifications: partially phosphorylated on tyrosine
With B1 the “IL-2 expression (quantitative RT-PCR)” value was > 5 fold.

Source: patent US20240317894A1 (BOARD OF REGENTS OF THE UNIVERSITY OF OKLAHOMA, published 2024)
